Substitutions are numbered along the chain they refer to. Numbered stars: 1 amine (or outer) side, 2 acyl side, 3 side chain; on linkers, the order of the positions; unused ones are H or OH. Bridge positions count the residues as written; N and C are the ends. * marks the point of attachment. C20 diacid = O=C(O)CCCCCCCCCCCCCCCCCCC(=O)*; γGlu = O=C(O)[C@H](CCC(=O)[*:2])N[*:1]
T1: rat calcitonin receptor (rat, UniProt P32214 25-516)
T1 construct: whole, on cells; membranes of transiently transfected BHK tk'ts 13 cells (Assay VIII); also called rCTR; rat calcitonin (a) receptor
T1 sequence (looked up): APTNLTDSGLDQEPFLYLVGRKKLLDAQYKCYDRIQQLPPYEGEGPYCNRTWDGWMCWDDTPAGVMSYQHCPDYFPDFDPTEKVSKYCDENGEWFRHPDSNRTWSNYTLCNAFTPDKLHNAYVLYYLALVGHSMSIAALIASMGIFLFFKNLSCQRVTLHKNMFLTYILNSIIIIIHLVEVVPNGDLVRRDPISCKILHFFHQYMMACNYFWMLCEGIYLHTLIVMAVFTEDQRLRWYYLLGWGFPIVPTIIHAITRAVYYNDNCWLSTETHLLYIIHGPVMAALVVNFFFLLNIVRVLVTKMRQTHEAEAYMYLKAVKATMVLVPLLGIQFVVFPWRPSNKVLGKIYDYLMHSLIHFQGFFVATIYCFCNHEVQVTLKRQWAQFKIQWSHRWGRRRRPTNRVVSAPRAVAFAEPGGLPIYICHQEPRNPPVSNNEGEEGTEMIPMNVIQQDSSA

T2: human calcitonin receptor (human, UniProt P30988 25-474)
T2 construct: whole, on cells; Membranes of a BHK tk'ts 13 cell line stably transfected with the human calcitonin receptor; also called hCTR; hCT
T2 sequence (looked up): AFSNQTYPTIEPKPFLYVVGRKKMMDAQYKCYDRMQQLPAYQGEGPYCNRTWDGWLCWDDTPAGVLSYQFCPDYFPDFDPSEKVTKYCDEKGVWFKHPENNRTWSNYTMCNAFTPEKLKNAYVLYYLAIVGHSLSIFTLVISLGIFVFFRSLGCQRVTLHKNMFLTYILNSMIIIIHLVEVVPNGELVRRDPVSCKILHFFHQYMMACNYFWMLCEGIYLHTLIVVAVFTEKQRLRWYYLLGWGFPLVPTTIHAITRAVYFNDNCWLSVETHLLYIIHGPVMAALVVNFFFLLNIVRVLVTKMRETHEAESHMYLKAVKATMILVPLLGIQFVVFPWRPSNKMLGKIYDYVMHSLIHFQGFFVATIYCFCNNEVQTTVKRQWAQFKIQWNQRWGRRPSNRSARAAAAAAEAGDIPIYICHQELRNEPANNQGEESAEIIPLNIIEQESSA

T3: human calcitonin receptor (human, UniProt P30988 25-474)
T3 construct: whole, on cells; membranes of stably transfected BHK cells (Assay VII); also called hCTR; hCT
T3 sequence (looked up): T2 sequence (looked up)

T4: rat amylin receptor (rat calcitonin receptor + rat RAMP 3) (rat, UniProt P32214 25-516; Q9JJ73 23-147)
T4 construct: whole, on cells; membranes of transiently transfected BHK tk'ts 13 cells (Assay VI); also called rAmylin-R; rat amylin 3(a) receptor
T4 sequence (looked up) 1: T1 sequence (looked up)
T4 sequence (looked up) 2: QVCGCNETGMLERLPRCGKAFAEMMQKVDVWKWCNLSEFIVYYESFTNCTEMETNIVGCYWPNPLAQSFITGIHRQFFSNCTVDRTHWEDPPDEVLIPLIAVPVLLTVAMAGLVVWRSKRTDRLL

B1: N^α1-[(4S)-4-carboxy-4-(19-carboxynonadecanoylamino)butanoyl]-[Arg17,Pro21,Pro27]-h-amylin (peptide)
peptide: KCNTATCATQRLANFLRHSSPNFGAIPSSTNVGSNTY
modifications: C20 diacid-gGlu on the alpha amino group of the N-terminal residue (Lys 1); disulfide bridge between the two Cys residues; C-terminal amide
notes: analogue of human amylin; also called compound 21
B2: N^α1-[(4S)-4-carboxy-4-(19-carboxynonadecanoylamino)butanoyl]-[Glu14,Arg17,Pro21,Pro27,Arg35]-h-amylin (peptide)
peptide: {C20 diacid-γGlu}-KCNTATCATQRLAEFLRHSSPNFGAIPSSTNVGSRTY-NH2
modifications: disulfide 2-7 (inferred)
notes: analogue of human amylin; also called compound 16
B3: N^α1-[(4S)-4-carboxy-4-(19-carboxynonadecanoylamino)butanoyl]-[Arg17,Pro21,Pro27,Pro34,Glu35]-h-amylin (peptide)
peptide: {C20 diacid-γGlu}-KCNTATCATQRLANFLRHSSPNFGAIPSSTNVGPETY-NH2
modifications: disulfide 2-7 (inferred)
notes: analogue of human amylin; also called compound 29
B4: N^α1-[(4S)-4-carboxy-4-(19-carboxynonadecanoylamino)butanoyl]-[Arg17,Pro21,Pro27,His34]-h-amylin (peptide)
peptide: B1 peptide with S34H
modifications: C20 diacid-gGlu on the alpha amino group of the N-terminal residue (Lys 1); disulfide bridge between the two Cys residues; C-terminal amide
notes: analogue of human amylin; also called compound 40
B5: N^α1-[2-[2-[2-[[2-[2-[2-[[(4S)-4-carboxy-4-(19-carboxynonadecanoylamino)butanoyl]amino]ethoxy]ethoxy]acetyl]amino]ethoxy]ethoxy]acetyl]-[Glu14,Arg17,Pro21,Pro27 … (peptide)
peptide: B1 peptide with N14E
modifications: C20 diacid-gGlu-2xOEG on the alpha amino group of the N-terminal residue (Lys 1); disulfide bridge between the two Cys residues; C-terminal amide
notes: analogue of human amylin; also called compound 19
B6: N^α1-[(4S)-4-carboxy-4-(19-carboxynonadecanoylamino)butanoyl]-[Glu14,Arg17,Pro21,Pro27,Pro31]-h-amylin (peptide)
peptide: {C20 diacid-γGlu}-KCNTATCATQRLAEFLRHSSPNFGAIPSSTPVGSNTY-NH2
modifications: disulfide 2-7 (inferred)
notes: analogue of human amylin; also called compound 31
B7: N^α1-[(4S)-4-carboxy-4-(19-carboxynonadecanoylamino)butanoyl]-[Glu14,Arg17,Pro21,Pro26]-h-amylin (peptide)
peptide: {C20 diacid-γGlu}-KCNTATCATQRLAEFLRHSSPNFGAPLSSTNVGSNTY-NH2
modifications: disulfide 2-7 (inferred)
notes: analogue of human amylin; also called compound 7
B8: N^α1-[(4S)-4-carboxy-4-(19-carboxynonadecanoylamino)butanoyl]-[Arg17,Pro21,Pro27,Arg34]-h-amylin (peptide)
peptide: B1 peptide with S34R
modifications: C20 diacid-gGlu on the alpha amino group of the N-terminal residue (Lys 1); disulfide bridge between the two Cys residues; C-terminal amide
notes: analogue of human amylin; also called compound 39
B9: N^α1-[(4S)-4-carboxy-4-(19-carboxynonadecanoylamino)butanoyl]-[Arg17,Pro21,Pro27,Pro31,Glu35]-h-amylin (peptide)
peptide: {C20 diacid-γGlu}-KCNTATCATQRLANFLRHSSPNFGAIPSSTPVGSETY-NH2
modifications: disulfide 2-7 (inferred)
notes: analogue of human amylin; also called compound 28
B10: N^α1-[(4S)-4-carboxy-4-(19-carboxynonadecanoylamino)butanoyl]-[Arg17,Pro21,Pro27,Glu35]-h-amylin (peptide)
peptide: B1 peptide with N35E
modifications: C20 diacid-gGlu on the alpha amino group of the N-terminal residue (Lys 1); disulfide bridge between the two Cys residues; C-terminal amide
notes: analogue of human amylin; also called compound 23
B11: N^α1-[(4S)-4-carboxy-4-(19-carboxynonadecanoylamino)butanoyl]-[His14,Arg17,Pro21,Pro27,Glu35]-h-amylin (peptide)
peptide: {C20 diacid-γGlu}-KCNTATCATQRLAHFLRHSSPNFGAIPSSTNVGSETY-NH2
modifications: disulfide 2-7 (inferred)
notes: analogue of human amylin; also called compound 30
B12: N^α1-[(4S)-4-carboxy-4-(19-carboxynonadecanoylamino)butanoyl]-[Glu14,Arg17,Pro21,Pro27,His34]-h-amylin (peptide)
peptide: {C20 diacid-γGlu}-KCNTATCATQRLAEFLRHSSPNFGAIPSSTNVGHNTY-NH2
modifications: disulfide 2-7 (inferred)
notes: analogue of human amylin; also called compound 17
B13: N^α1-[(4S)-4-carboxy-4-(19-carboxynonadecanoylamino)butanoyl]-[Arg17,Pro21,Pro27,Lys35]-h-amylin (peptide)
peptide: B1 peptide with N35K
modifications: C20 diacid-gGlu on the alpha amino group of the N-terminal residue (Lys 1); disulfide bridge between the two Cys residues; C-terminal amide
notes: analogue of human amylin; also called compound 34
B14: N^α1-[(4S)-4-carboxy-4-(19-carboxynonadecanoylamino)butanoyl]-[Glu14,Arg17,Pro21,Pro27,Pro34]-h-amylin (peptide)
peptide: {C20 diacid-γGlu}-KCNTATCATQRLAEFLRHSSPNFGAIPSSTNVGPNTY-NH2
modifications: disulfide 2-7 (inferred)
notes: analogue of human amylin; also called compound 32
B15: N^α1 N^α1-[(4S)-4-carboxy-4-[[(4S)-4-carboxy-4-(19-carboxynonadecanoylamino)butanoyl]amino]butanoyl]-[Glu14,Arg17,Pro21,Pro27]-h-amylin (peptide)
peptide: {C20 diacid-γGlu-γGlu}-KCNTATCATQRLAEFLRHSSPNFGAIPSSTNVGSNTY-NH2
modifications: disulfide 2-7
SMILES: CC[C@H](C)[C@H](NC(=O)[C@H](C)NC(=O)CNC(=O)[C@H](Cc1ccccc1)NC(=O)[C@H](CC(N)=O)NC(=O)[C@@H]1CCCN1C(=O)[C@H](CO)NC(=O)[C@H](CO)NC(=O)[C@H](Cc1c[nH]cn1)NC(=O)[C@H](CCCNC(=N)N)NC(=O)[C@H](CC(C)C)NC(=O)[C@H](Cc1ccccc1)NC(=O)[C@H](CCC(=O)O)NC(=O)[C@H](C)NC(=O)[C@H](CC(C)C)NC(=O)[C@H](CCCNC(=N)N)NC(=O)[C@H](CCC(N)=O)NC(=O)[C@@H](NC(=O)[C@H](C)NC(=O)[C@@H]1CSSC[C@H](NC(=O)[C@H](CCCCN)NC(=O)CC[C@H](NC(=O)CC[C@H](NC(=O)CCCCCCCCCCCCCCCCCCC(=O)O)C(=O)O)C(=O)O)C(=O)N[C@@H](CC(N)=O)C(=O)N[C@@H]([C@@H](C)O)C(=O)N[C@@H](C)C(=O)N[C@@H]([C@@H](C)O)C(=O)N1)[C@@H](C)O)C(=O)N1CCC[C@H]1C(=O)N[C@@H](CO)C(=O)N[C@@H](CO)C(=O)N[C@H](C(=O)N[C@@H](CC(N)=O)C(=O)N[C@H](C(=O)NCC(=O)N[C@@H](CO)C(=O)N[C@@H](CC(N)=O)C(=O)N[C@H](C(=O)N[C@@H](Cc1ccc(O)cc1)C(N)=O)[C@@H](C)O)C(C)C)[C@@H](C)O
notes: modifications are with respect to human amylin; also called compound 15

Each binder was assayed against T1, rat calcitonin receptor (assay: SPA competition with 125I-calcitonin, membranes of BHK cells with rat calcitonin receptor (Assay VIII)).

| Binder | IC50 [nM] |
| --- | --- |
| B1 | 27.9 |
| B2 | 55.2 |
| B3 | 21.6 |
| B4 | 69.2 |
| B5 | 95.6 |
| B6 | 26.5 |
| B7 | 47.2 |
| B8 | 96.4 |
| B9 | 54.9 |
| B10 | 79.9 |
| B11 | 114 |
| B12 | 97.2 |
| B13 | 89.2 |
| B14 | 5.98 |

Each binder was assayed against T2, human calcitonin receptor (assay: IC50 at hCTR divided by IC50 at hAmylin-R (reference)).
Protocol: (§1) The resulting pellet was resuspended, homogenized and centrifuged (20.000 rpm, 15 min) in a buffer containing 20 mM Na-HEPES and 0.1 mM EDTA (pH 7.4, buffer 2). The resulting pellet was resuspended in buffer 2 and protein concentration was measured (BCA protein Assay, Pierce). The homogenate was kept cold during the whole procedure. The membranes were kept at −80° C. until use. The assay was performed in a 384 well Optiplate (PerkinElmer) in a total volume of 40 ul. Membranes were mixed with SPA beads. Final concentration of membranes 35 ng/μL final and SPA beads was 0.05 mg/well. Test-compounds were dissolved in DMSO and further diluted in assay buffer (50 mM Hepes, pH 7.4, 1 mM CaCl2, 5 mM MgCl₂, 0.1% OA and 0.02% Tween20). […] The final mixture was incubated with shaking at 400 rpm for 120 min at 25° C. prior to centrifugation (1500 rpm, 10 min). Samples were analyzed on TopCounter™ (Packard). The IC₅₀ was calculated using (one site binding competition analysis) GraphPad Prism5 as a measure of receptor affinity.
(§2) Membranes were prepared in the following way; the cells were rinsed with PBS and incubated with Versene for approximately 5 min before harvesting. The cells were flushed with PBS and the cell-suspension was centrifuged for 5 min at 1000 rpm. Cells were homogenized (Ultrathurrax) in a buffer containing 20 mM Na-HEPES and 10 mM EDTA (pH 7.4) and centrifuged at 20.000 rpm for 15 min. The resulting pellet was resuspended, homogenized and centrifuged (20.000 rpm, 15 min) in a buffer containing 20 mM Na-HEPES and 0.1 mM EDTA (pH 7.4, buffer 2). The resulting pellet was resuspended in buffer 2 and protein concentration was measured (BCA protein Assay, Pierce). The homogenate was kept cold during the whole procedure. The membranes were kept at −80° C. until use. Assay was performed in a 384 well Optiplate (PerkinElmer) in a total volume of 40 ul. Membranes were mixed with SPA beads.

| Binder | Ratio hCT/hAmylin binding |
| --- | --- |
| B15 | 26 |

The binders below were run against T3, human calcitonin receptor (assay: IC50 on human calcitonin receptor divided by IC50 on human amylin receptor (SPA competition)).
Protocol: as §1, §2

| Binder | Ratio hCT/hAmylin binding |
| --- | --- |
| B1 | 24.4 |
| B2 | 19.1 |
| B3 | 13.9 |
| B4 | 31.1 |
| B5 | 36.7 |
| B6 | 16 |
| B7 | 16.5 |
| B8 | 29 |
| B9 | 20.5 |
| B10 | 25 |
| B11 | 23.6 |
| B12 | 12.5 |
| B13 | 64.4 |
| B14 | 10.9 |

The binders below were run against T1, rat calcitonin receptor (assay: IC50 on rat calcitonin receptor divided by IC50 on rat amylin receptor (SPA competition)).

| Binder | Ratio rCT/rAmylin binding |
| --- | --- |
| B1 | 18.8 |
| B2 | 45.6 |
| B3 | 67 |
| B4 | 46.2 |
| B5 | 93.6 |
| B6 | 42.8 |
| B7 | 42 |
| B8 | 54.5 |
| B9 | 44.9 |
| B10 | 71.3 |
| B11 | 36.1 |
| B12 | 35.9 |
| B13 | 52 |
| B14 | 34 |

What follows are binders tested against T4, rat amylin receptor (rat calcitonin …) (assay: SPA competition with 125I-rat amylin, membranes of BHK cells with rat calcitonin receptor + rat RAMP3 (Assay VI)).

| Binder | IC50 [nM] |
| --- | --- |
| B1 | 1.48 |
| B2 | 1.21 |
| B3 | 0.322 |
| B4 | 1.5 |
| B5 | 1.02 |
| B6 | 0.619 |
| B7 | 1.12 |
| B8 | 1.77 |
| B9 | 1.22 |
| B10 | 1.12 |
| B11 | 3.14 |
| B12 | 2.71 |
| B13 | 1.72 |
| B14 | 0.176 |
